Legend:
[1] = molecular target: fusion protein of GST and mLIF with only the DEVD site in the linker (L0: DEVD), P09056
[2] = molecular target: fusion protein of GST and mLIF where the DEVD site is preceded by a GPGS sequence (L1: GPGSDEVD), P09056
[3] = molecular target: H-GST-DEVD/S-mLIF, P09056
[4] = molecular target: the 20 fusion proteins of the formula H-GST-DEVD/X-mLIF, where X is any of the possible 20 amino acids

| Protein | processing of the fusion protein (gel, FIG. 3b) (GST-C-hIFNα) | amount of enzyme sufficient to process 10 microgram of fusion protein (H-GST-DEVD/mLIF, P09056) | percent of fusion protein processed (50 ng enzyme, 45 minutes) (H-GST-DEVD/mLIF, P09056) | time needed for processing (H-GST-DEVD/mLIF, P09056) | processing yield (densitometric scanning of the gel) [1] | percent of fusion product processed (densitometric scanning of the gel) [2] | amount of enzyme sufficient to process 10 microgram of fusion protein [3] | time needed for processing [3] | percent of fusion protein processed (2 microgram enzyme on 10 microgram substrate) (MBP-L0-hIFNalpha) | cleavage of P1′ variants (gel, FIG. 6) [4] | efficiency of cleavage (H-GST-DEVD/mLIF, P09056) |
| --- | --- | --- | --- | --- | --- | --- | --- | --- | --- | --- | --- |
| murine Caspase-3 (protein) chain 1: SGIYLDSSYKMDYPEMGICIIINNKNFHKSTGMSSRSGTDVDAANLRETFMGLKYQVRNKNDLTREDILELMDSVSKEDHSKRSSFVCVILSHGDEGVIYGTNGPVELKKLTSFFRGDYCRSLTGKPKLFIIQACRGTELDCGIETD chain 2: SGTDEEMACQKIPVEADFLYAYSTAPGYYSWRNSKDGSWFIQSLCSMLKLYAHKLEFMHILTRVNRKVATEFESFSLDSTFHAKKQIPCIVSMLTKELYFYH | Caspase-3 on the other hand gave a high yield of processing even after only 45 minutes of incubation | as little as 50 ng of enzyme is sufficient to process 10 microgram of protein | An amount of 50 ng is sufficient to process >90% of 10 microgram of a GST-mLIF fusion protein | the reaction was finished after 45 minutes when using Caspase-3 | only 10% processing yield was seen under these conditions when using the L0 linker | 90% of the fusion product containing L1 was processed | as little as 50 ng of enzyme is sufficient to process 10 microgram of protein | the reaction was finished after 45 minutes when using Caspase-3 | 2 microgram of caspase 3 is needed to process only 50% of 10 microgram of MBP-L0-hIFNalpha | all amino acids in the P1′ position could be processed by Caspase-3 | – |
| murine caspase 7 (protein) chain 1: AKPDRSSIISSILLKKKRNASAGPVRTGRDRVPTYLYRMDFQKMGKCIIINNKNFDKATGMDVRNGTDKDAGALFKCFQNLGFEVTVHNDCSCAKMQDLLRKASEEDHSNSACFACVLLSHGEEDLIYGKDGVTPIKDLTAHFRGDRCKTLLEKPKLFFIQACRGTELDDGIQAD chain 2: ANPRNKIPVEADFLFAYSTVPGYYSWRNPGKGSWFVQALCSILNEHGKDLEIMQILTRVNDRVARHFESQSDDPRFNEKKQIPCMVSMLTKELYFSR | – | – | – | – | – | – | – | – | – | – | the murine caspase 7 was not as active as the murine caspase 3 and more enzyme needed to be added to obtain the same efficiency of cleavage |
